Assay results: the supplement of paper PMC11780869

Tested on: Bacillus subtilis
Assay: cleaved RNA product abundance (RNA/gDNA barcode ratio) relative to median wild-type variant (ratio to wild type); higher = more accumulation of the downstream cleavage product
Method in brief: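 Oligos with a 9% error rate were used to build barcoded, mutagenized RNase Y cleavage-site windows within truncated aprE or tetM reporter mRNAs, which were integrated into the B. subtilis chromosome. Cultures were grown in LB at 37°C between OD600 0.0003 and 0.3. Cleaved RNA was gel-selected, reverse transcribed and barcode-sequenced, as were genomic DNA barcodes, and UMIs were collapsed. Cleaved product abundance is the scaled RNA:gDNA barcode ratio, with the median construct carrying the unmutated site as reference.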

[1] = experiment (reporter, strain, medium): exp 8a: truncated aprE reporter, strain BJT201 with 2% xylose (RNase J1 expressed), cleavage site: glnRA (positions -5 to +31 mutated)
[2] = experiment (reporter, strain, medium): exp 4a: truncated aprE reporter, strain BJT201 with 2% xylose (RNase J1 expressed), cleavage site: cggR-gapA (positions -7 to +36 mutated)
[3] = experiment (reporter, strain, medium): exp 2b: truncated aprE reporter, strain BJT200, cleavage site: cggR-gapA (positions -7 to +36 mutated)
[4] = experiment (reporter, strain, medium): exp 6: tetM reporter, strain 168, cleavage site: cggR-gapA (positions -7 to +36 mutated)

Sequence	cleaved RNA product abundance [1]	cleaved RNA product abundance [2]	further results
CGACATGTCCCGCTTCTTTCATTAATCCGTTAGCAACTGTTTTGCTATATTCATTTACCTTTTAAGAGGAGGAAT	0.233		
CGACATGTCCCGCTTCTTTCATTAATCGGTTAGCAACAGTTTTGCTATATACATTTACCTTTTAAGAGGAGGAAT	0.927		
ACAGACGAAGGAGCCGCAAAGAAGTTATTAAGGGTTGAATAATCCCTCAATATATATATCTCTCACTTATTTAAA		0.371	
ACAGACGAAGGAGCCGCAAAGAAGTTATAAGGGGATGAATAATCCCTCAATATAAATATCTCTCACTTATTTAAA		0.49	
ACAGACGAAGGAGCCGCAAACAAGTTATTAAAGGATGAATAATCCCTCATTATAAATATCTCTCACTTATTTAAA		0.115	
ACAGACGAAGGAGCCGCAAAGAAGTTATTAAGGGATGAAAAATCCGTCAATATAAATATCTCTCACTTATTTAAA		0.355	
ACAGACGAAGGAGCCGCAAAGAACTTATTAATGGATGAATAATCCCTCAATATAAATATCTCTCACTTATTTAAA		0.142	cleaved RNA product abundance [3]: 0.102
ACAGACGAAGGAGCCGCAAAGTAGTTATTAAGGGATGAATAATCCCTCAATATAATTATCTCTCACTTATTTAAA		0.437	
ACAGACGAAGGAGCCGCAAGGAAGTTATTAAGGGATGAATAATCCCTCAATATAAATATCTCTCACTTATTTAAA		0.863	cleaved RNA product abundance [3]: 0.954; cleaved RNA product abundance [4]: 1.21
ACAGACGAAGGAGCCGCACAGAAGTTATAAAGGGATGAATAATCCCTCAATATAAATATCTCTCACTTATTTAAA		0.414	
CGACATGTCCCGCTTCTTTCATTACTCCGTTAGCAACTGTTTTGCTATCTACATTTACCTTTTAAGAGGAGGAAT	0.0823		
ACAGACGAAGGAGCCGCAAAGAAGTTATTAAGGTATAAATAATCCCTCAATATAAATGTCTCTCACTTATTTAAA		0.11	
ACAGACGAAGGAGCCGCAAACAAGTTATTAACGGATGAATAATCCCTCAATATAAATATCTCTCACTTATTTAAA		0.0915	cleaved RNA product abundance [3]: 0.111
CGACATGTCCCGCTTCTTTCATTAATCAATTAGCAACTGTTTTGCTATATACATTTACCTTTTAAGAGGAGGAAT	0.946		
ACAGACGAAGGAGCCGCAAAGACGTTATTATGGGATGAATAATCCCTCAATATAAATATCTCTCACTTATTTAAA		0.284	
CGACATGTCCCGCTTCTTTCATTAATCCGTTAGCAACTGTTTTGCCATATACATTTACATTTTAAGAGGAGGAAT	0.355		
CGACATGTCCCGCTTCTTTCATTAATCCTTTAGCAACTGGTTTGCTATATACATTTACCTTTTAAGAGGAGGAAT	0.306		
ACAGACGAAGGAGCCGCAAATAAGTTTTTAAGGGATGAATAATCCCTCAATATAAATATCTCTCACTTATTTAAA		0.402	cleaved RNA product abundance [3]: 0.29
ACAGACGAAGGAGCCGCAAAGAAGTTATTTAGGGATGAATAACCCCTCAATATAAATATCTCTCACTTATTTAAA		0.288	
CGACATGTCCCGCTTCTTTCATTACTCCGTTAGCAACTGTTTTGCGATATACATTTACCTTTTAAGAGGAGGAAT	0.388		
ACAGACGAAGGAGCCGCAAAGAAGTTATTAATGGTTGAATAATCCCTCAATATAAATATCTCTCACTTATTTAAA		0.121	cleaved RNA product abundance [3]: 0.107
ACAGACGAAGGAGCCGCAAAGAAGTTATTAAGGGGTGAATAATCCTTCAATATAAATATCTCTCACTTATTTAAA		0.266	
CGACATGTCCCGCTTCTTTCATTAATCCGTTAGCAACTATTTTGCTATATACATTTACATTTTAAGAGGAGGAAT	3.23		
CGACATGTCCCGCTTCTTTCATTACTCCGTTAGCAACTGTTTTTCTATATACATTTACCTTTTAAGAGGAGGAAT	0.594		
ACAGACGAAGGAGCCGCAAAGAAGTTATTAAGGGATAAATACTCCCTCAATATAAATATCTCTCACTTATTTAAA		0.534	cleaved RNA product abundance [3]: 0.674
ACAGACGAAGGAGCCGCAAAGAAGTTATTAAGGGATGAATAATCCCTCTATATAATTATCTCTCACTTATTTAAA		0.309	cleaved RNA product abundance [3]: 0.29
CGACATGTCCCGCTTCTTTCATTAATCCGTTAGCAATTGTTTTGCTATATGCATTTACCTTTTAAGAGGAGGAAT	0.232		

Sequence	cleaved RNA product abundance [1]	cleaved RNA product abundance [2]	further results
ACAGACGAAGGAGCCGCAAAGAATATATTAAGGGATGAATAATCCCTCAATATAAATATCTCTCACTTATTTAAA		0.375	
ACAGACGAAGGAGCCGCAAAGAAGTTATTATGGGATCAATAATCCCTCAATATAAATATCTCTCACTTATTTAAA			cleaved RNA product abundance [3]: 0.23
CGACATGTCCCGCTTCTTTCATTAATCCGTAAGCAACTGTTTTGCTATATACTTTTACCTTTTAAGAGGAGGAAT	0.307		
ACAGACGAAGGAGCCGCAAAAAAGTTATTCAGGGATGAATAATCCCTCAATATAAATATCTCTCACTTATTTAAA		0.962	
CGACATGTCCCGCTTCTTTCATTAATCCGTTAGCAACTGTTTTTCTATATACATTTTACCTTTTAAGAGGAGGAA	0.435		
CGACATGTCCCGCTTCTTTCATTAAACCGTTAGCAACTGTTTTGCTATATACATTTACTTTTTAAGAGGAGGAAT	0.665		
CGACATGTCCCGCTTCTTTCATTAATCAGTTTGCAACTGTTTTGCTATATACATTTACCTTTTAAGAGGAGGAAT	0.686		
ACAGACGAAGGAGCCGCAAAGAAGTTATTAAGGGATGAATAATTCCTCAATATAAATATCTCTCACTTATTTAAA		0.616	cleaved RNA product abundance [3]: 0.506; cleaved RNA product abundance [4]: 0.494
CGACATGTCCCGCTTCTTTCATTAATCCGTTAACAACTGTTTTGCTATATACATATACCTTTTAAGAGGAGGAAT	0.195		
CGACATGTCCCGCTTCTTTCATTAATCCGTTATCAAGTGTTTTGCTATATACATTTACCTTTTAAGAGGAGGAAT	0.202		
ACAGACGAAGGAGCCGTAAAGAAGTTATTAAGGCATGAATAATCCCTCAATATAAATATCTCTCACTTATTTAAA			cleaved RNA product abundance [4]: 0.143
ACAGACGAAGGAGCCGCAAAGAAGTTATTAAGGGATCGATAATCCCTCAATATAAATATCTCTCACTTATTTAAA		0.722	cleaved RNA product abundance [3]: 0.652
ACAGACGAAGGAGCCGCAAAGAAGTTAATAAGGGATGAATAATCCTTCAATATAAATATCTCTCACTTATTTAAA		0.237	cleaved RNA product abundance [3]: 0.185
ACAGACGAAGGAGCCGCAAAGAAGTTATTAAGGGATGAATAAACCCTGAATATAAATATCTCTCACTTATTTAAA		0.388	cleaved RNA product abundance [3]: 0.303
CGACATGTCCCGCTTCTTTCATTAATCCATTAGCAACTGTTTTACTATATACATATACCTTTTAAGAGGAGGAAT	0.482		
CGACATGTCCCGCTTCTTTCATTAATCCGTAAGCAACTGTTTTGCTATATACCTTTACCTTTTAAGAGGAGGAAT	0.207		
ACAGACGAAGGAGCCGCAAAGAAGTTATTAAGGGATTAATAATTCCTCAATATAAATATCTCTCACTTATTTAAA		0.569	cleaved RNA product abundance [3]: 0.543
CGACATGTCCCGCTTCTTTCATTAATCCGTTAGCAAGTGTTTTGTTATATACATTTACCTTTTAAGAGGAGGAAT	0.21		
ACAGACGAAGGAGCCGCAAAGAAGTTATTAAGGCATGAATAATCCCTCAATATGAATATCTCTCACTTATTTAAA		0.0354	
CGACATGTCCCGCTTCTTTCATTAATCCGTTATCAACTGTTTAGCTATATACATTTACCTTTTAAGAGGAGGAAT	0.243		
CGACATGTCCCGCTTCTTTCATTAATCCGTTATCAACTGTTTTGCTATATACTTTTACCTTTTAAGAGGAGGAAT	0.295		
CGACATGTCCCGCTTCTTTCATTAATCCGTTAGGAACAGTTTTGCTATATACATTTACCTTTTAAGAGGAGGAAT	0.434		
ACAGACGAAGGAGCCGCAAAGAAGTTATAAAGGGAAGAATAATCCCTCAATATAAATATCTCTCACTTATTTAAA		0.322	cleaved RNA product abundance [3]: 0.174
CGACATGTCCCGCTTCTTTCATTAATCCGTTAGCAACTGTACTGCTATATACATTTACCTTTTAAGAGGAGGAAT	0.328		
ACAGACGAAGGAGCCGCAAAGAAGTTATTAAGGGATGAATATTCCTTCAATATAAATATCTCTCACTTATTTAAA		0.546	
ACAGACGAAGGAGCCGCAAACTAGTTATTAAGGGATGAATAATCCCTCAATATAAATATCTCTCACTTATTTAAA		0.991	
CGACATGTCCCGCTTCTTTCATTAATCCGTAAGCAACTGTTTTTCTATATACATTTACCTTTTAAGAGGAGGAAT	0.508		
